From paper PMC3638996 (Structure (London, England : 1993), 2013)
Numbering of substitutions follows the chain as printed. Names may count otherwise.

T1: Murine Gαq (amino acids 7-359), biotinylated (mouse, UniProt P21279 7-359, biotinylated with biotinamidohexanoic acid N-hydroxysuccinimide)
T1 sequence (looked up): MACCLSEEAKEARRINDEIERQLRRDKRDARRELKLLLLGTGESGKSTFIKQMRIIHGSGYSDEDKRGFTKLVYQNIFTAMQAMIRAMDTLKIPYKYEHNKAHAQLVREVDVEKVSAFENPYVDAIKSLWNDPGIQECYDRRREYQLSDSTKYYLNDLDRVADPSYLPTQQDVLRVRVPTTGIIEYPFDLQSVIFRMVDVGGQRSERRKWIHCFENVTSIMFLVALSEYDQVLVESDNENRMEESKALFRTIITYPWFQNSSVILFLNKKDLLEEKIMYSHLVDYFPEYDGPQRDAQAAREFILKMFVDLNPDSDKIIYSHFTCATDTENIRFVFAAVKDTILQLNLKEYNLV

B1: Full-length RGS2, fluorescently labeled with Alexa Fluor-488 (natural protein, human, UniProt P41220 1-211, looked up)
chain: MQSAMFLAVQHDCRPMDKSAGSGHKSEEKREKMKRTLLKDWKTRLSYFLQNSSTPGKPKTGKKSKQQAFIKPSPEEAQLWSEAFDELLASKYGLAAFRAFLKSEFCEENIEFWLACEDFKKTKSPQKLSSKARKIYTDFIEKEAPKEINIDFQTKTLIAQNIQEATSGCFTTAQKRVYSLMENNSYPRFLESEFYQDLCKKPQITTEPHAT
modifications: labeled with Alexa Fluor-488 carboxylic acid, 2,3,5,6-tetrafluorophenyl ester, 5-isomer
B2: RGS2 RH domain (residues 72-203), wild type (domain or fragment, human)
chain: GEFGSPSPEEAQLWSEAFDELLASKYGLAAFRAFLKSEFCEENIEFWLACEDFKKTKSPQKLSSKARKIYTDFIEKEAPKEINIDFQTKTLIAQNIQEATSGCFTTAQKRVYSLMENNSYPRFLESEFYQDLCKKPQ
B3: RGS2 RH domain (residues 72-203) S179M (domain or fragment, human)
chain: B2 chain with S113M
B4: RGS2 RH domain (residues 72-203) N183K (domain or fragment, human)
chain: B2 chain with N117K
B5: RGS2 RH domain (residues 72-203) S179D (domain or fragment, human)
chain: B2 chain with S113D
B6: RGS2 RH domain (residues 72-203) S179K (domain or fragment, human)
chain: B2 chain with S113K
B7: RGS2 RH domain (residues 72-203) E182A (domain or fragment, human)
chain: B2 chain with E116A
B8: RGS2 RH domain (residues 72-203) N183A (domain or fragment, human)
chain: B2 chain with N117A
B9: RGS2 RH domain (residues 72-203) N183F (domain or fragment, human)
chain: B2 chain with N117F
B10: RGS2 RH domain (residues 72-203) S179N (domain or fragment, human)
chain: B2 chain with S113N
B11: RGS2 RH domain (residues 72-203) K175A (domain or fragment, human)
chain: B2 chain with K109A

Each binder was assayed against T1, Murine Gαq (amino acids 7-359), … (assay: bead-based flow cytometry binding assay).

| Kd [nM] | Binder |
| --- | --- |
| 3.3 | B1 |

These binders were tested against T1, Murine Gαq (amino acids 7-359), … (assay: bead-based flow cytometry competition assay).

| IC50 [nM] | Binder |
| --- | --- |
| 270 | B2 |
| 130 | B3 |
| 7100 | B4 |
| 16000 | B5 |
| 3400 | B6 |
| 300 | B7 |
| 1500 | B8 |
| 170 | B9 |
| 690 | B10 |
| 560 | B11 |

These binders were tested against Gαi/q-R183C chimera (Gαq R183C with the N-terminal helix of Gαi), biotinylated (not stated | mouse) (assay: bead-based flow cytometry binding assay).

| Kd [nM] | Binder |
| --- | --- |
| 22 | B1 |
